From patent publication US12281340B2, “Method of producing N-acyl-amino group-containing compound” (AJINOMOTO CO., INC., priority 2018, dated 2025) come the findings set out here.

Test [1] is described as follows: Synthesis of N-lauroylamino acid / N-lauroylamino acid derivative using purified acylamino acid synthetase, UPLC-MS detection. In kind it is biochemical. Also noted: key: +: Detected; −: Not detected. As to conditions: +ATP.
Test [2] in a line: Synthesis of N-caprinoylamino acid using purified acylamino acid synthetase, UPLC-MS detection. Format: biochemical. Details: key: +: Detected; −: Not detected. As to conditions: +ATP. In short, it runs like this:
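Purified enzyme (50 μg) with 5 mM amino acid, 5 mM sodium caprate, 10 mM ATP, 10 mM MgCl2, 1 mM DTT in Tris-HCl pH 8.0, 24 h at 25° C; product detected by UPLC-MS (ESI-negative) as the N-caprinoyl amino acid mass signal.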

Setting [3] is: substrates Sarcosine and sodium laurate.
Where [4] appears, read: substrates Taurine and sodium laurate.
Where [5] appears, read: substrates GABA and sodium caprate.
[6] abbreviates: substrates Gly and sodium caprate.
The mark [7] stands for this setting: substrates L-Ala and sodium caprate.
Setting [8] is: substrates L-Arg and sodium caprate.
Setting [9] is: substrates L-Asn and sodium caprate.
Where [10] appears, read: substrates L-Asp and sodium caprate.
[11] abbreviates: substrates L-Cys and sodium caprate.
Where [12] appears, read: substrates L-Gln and sodium caprate.
Setting [13] is: substrates L-Glu and sodium caprate.
Setting [14] is: substrates L-His and sodium caprate.
Setting [15] is: substrates L-Ile and sodium caprate.
The mark [16] stands for this setting: substrates L-Leu and sodium caprate.
Setting [17] is: substrates L-Lys and sodium caprate.
[18] abbreviates: substrates L-Met and sodium caprate.
The mark [19] stands for this setting: substrates L-Phe and sodium caprate.
The mark [20] stands for this setting: substrates L-Pro and sodium caprate.
Setting [21] is: substrates L-Ser and sodium caprate.
Setting [22] is: substrates L-Thr and sodium caprate.
Setting [23] is: substrates L-Trp and sodium caprate.
Where [24] appears, read: substrates L-Tyr and sodium caprate.
[25] abbreviates: substrates L-Val and sodium caprate.
Where [26] appears, read: substrates β-Ala and sodium caprate.

B1: AtGH3-5: indole-3-acetic acid-amido synthetase GH3.5 from Arabidopsis thaliana, His-tagged (protein, listed as Arabidopsis thaliana)
chain: MPEAPKKESLEVFDLTLDQKNKQKLQLIEELTSNADQVQRQVLEEILTRNADVEYLRRHDLNGRTDRETFKNIMPVITYEDIEPEINRIANGDKSPILSSKPISEFLTSSGTSGGERKLMPTIEEELDRRSLLYSLLMPVMSQFVPGLENGKGMYFLFIKSESKTPGGLPARPVLTSYYKSSHFKERPYDPYTNYTSPNETILCSDSYQSMYSQMLCGLCQHQEVLRVGAVFASGFIRAIKFLEKHWIELVRDIRTGTLSSLITDPSVREAVAKILKPSPKLADFVEFECKKSSWQGIITRLWPNTKYVDVIVTGTMSQYIPTLDYYSNGLPLVCTMYASSECYFGVNLRPLCKPSEVSYTLIPSMAYFEFLPVHRNNGVTNSINLPKALTEKEQQELVDLVDVKLGQEYELVVTTYAGLCRYRVGDLLRVTGFKNKAPQFSFICRKNVVLSIDSDKTDEVELQNAVKNAVTHLVPFDASLSEYTSYADTSSIPGHYVLFWELCLDGNTPIPPSVFEDCCLAVEESFNTVYRQGRVSDKSIGPLEIKIVEPGTFDKLMDYAISLGASINQYKTPRCVKFAPIIELLNSRVVDSYFSPKCPKWVPGHKQWGSN
modifications: His-tag
notes: indole-3-acetic acid-amido synthetase GH3.5 from Arabidopsis thaliana, His-tagged
With B1, the “signal of molecular weight corresponding to N-lauroyl amino acid derivative” value in test [1] (setting [3]) and in test [1] (setting [4]) was “+” each time. Further, the “signal of molecular weight corresponding to N-caprinoyl amino acid” value (shortened to “signal … to N-caprinoyl amino acid”) in test [2] (setting [5]), in test [2] (setting [6]), in test [2] (setting [7]), in test [2] (setting [8]), in test [2] (setting [9]) and in test [2] (setting [10]) was “+” each time. Besides, the “signal … to N-caprinoyl amino acid” value in test [2] (setting [11]), in test [2] (setting [12]), in test [2] (setting [13]), in test [2] (setting [14]), in test [2] (setting [15]) and in test [2] (setting [16]) was “+” each time. Further, the “signal … to N-caprinoyl amino acid” value in test [2] (setting [17]), in test [2] (setting [18]), in test [2] (setting [19]), in test [2] (setting [20]), in test [2] (setting [21]) and in test [2] (setting [22]) was “+” throughout. For the same molecule, the “signal … to N-caprinoyl amino acid” value in test [2] (setting [23]), in test [2] (setting [24]), in test [2] (setting [25]) and in test [2] (setting [26]) was “+” each time.

B2: OsGH3-8: probable indole-3-acetic acid-amido synthetase GH3.8 from Oryza sativa, expressed in E. coli with N-terminal His-tag (protein, listed as Oryza sativa)
chain: MAVMTDVSTTGTALRTPAAGAVKEGDVEKLRFIDEMTTNVDAVQERVLGEILGRNAGTEYLTKCGLDGATDRAAFRAKVPVVSYDDLQPYIQRIANGDRSPILSTHPVSEFLTSSGTSAGERKLMPTIMDELDRRQLLYSLLMPVMNLYVPGLDKGKGLYFLFVKSETKTPGGLTARPVLTSYYKSDHFKNRPYDPYHNYTSPTAAILCADAFQSMYAQMVCGLCQRNDVLRLGAVFASGLLRAIRFLQLNWEQLADDIESGELTPRVTDPSVREAVAAILLPDPELAKLIRAECSKGDWAGIITRVWPNTKYLDVIVTGAMAQYIPTLEFYSGGLPMACTMYASSECYFGLNLRPMCDPSEVSYTIMPNMGYFEFLPVDETGAASGDATQLVDLARVEVGREYELVITTYAGLNRYRVGDVLRVTGFHNAAPQFRFVRRKNVLLSIESDKTDEAELQRAVERASALLRPHGASVVEYTSQACTKRIPGHYVIYWELLTKGAGATVVDADTLGRCCLEMEEALNTVYRQSRVADGSIGPLEIRVVRPGTFEELMDYAISRGASINQYKVPRCVTFPPIVELLDSRVVSSHFSPALPHWTPARRSE
modifications: N-terminal His-tag
notes: probable indole-3-acetic acid-amido synthetase GH3.8 from Oryza sativa, expressed in E. coli with N-terminal His-tag
For B2, the “signal of molecular weight corresponding to N-lauroyl amino acid derivative” value in test [1] (setting [3]) was “−”; in test [1] (setting [4]) it was “+”. Moreover, the “signal … to N-caprinoyl amino acid” value in test [2] (setting [5]), in test [2] (setting [6]), in test [2] (setting [7]), in test [2] (setting [8]), in test [2] (setting [9]) and in test [2] (setting [10]) was “+” throughout. Besides, the “signal … to N-caprinoyl amino acid” value in test [2] (setting [11]), in test [2] (setting [12]), in test [2] (setting [13]), in test [2] (setting [14]), in test [2] (setting [15]) and in test [2] (setting [16]) was “+” each time. Moreover, the “signal … to N-caprinoyl amino acid” value in test [2] (setting [17]), in test [2] (setting [18]), in test [2] (setting [19]), in test [2] (setting [20]), in test [2] (setting [21]) and in test [2] (setting [22]) was “+” throughout. In addition, the “signal … to N-caprinoyl amino acid” value in test [2] (setting [23]), in test [2] (setting [24]), in test [2] (setting [25]) and in test [2] (setting [26]) was “+” each time.
